# Data reported in patent US20060183688A1 (LES LABORATORIES SERVIER, published 2006).
# No end group written: not given here. fluorescein = fluorescein label at the N-terminal end
# B1: peptide obtained in Example 1 labelled with fluorescein at the N-terminal end (peptide)
# peptide: fluorescein-DTRRSMVFARHLREVGDEFRSR
# notes: Used at 15 nM in fluorescence polarisation; also called ID; NO.1
# Key:
# [1] = molecular target: T1, fusion protein glutathione-S-transferase-Bcl-W (UniProt P08515 1-218 = GST; Q92843 1-171); assay: fluorescence polarisation, 15 nM fluorescein-peptide, GST-Bcl-W titrated 1 nM to 5 uM
# T1 construct: also called GST-Bcl-W
# T1 sequence (P08515 1-218, tags or fused parts left off): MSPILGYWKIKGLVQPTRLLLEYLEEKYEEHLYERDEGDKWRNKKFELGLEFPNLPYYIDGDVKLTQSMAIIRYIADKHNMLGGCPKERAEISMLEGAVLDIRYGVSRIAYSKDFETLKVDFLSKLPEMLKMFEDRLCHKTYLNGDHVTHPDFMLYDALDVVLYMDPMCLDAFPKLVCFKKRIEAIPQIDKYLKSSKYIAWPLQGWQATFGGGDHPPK
# Protocol: (§1) A 15 nM solution of the peptide obtained in Example 1 labelled with fluorescein at the N-terminal end is mixed with a solution containing the fusion protein GST-Bcl-XL or GST-Bcl-W at a concentration varying from 1 nM to 5 μM in a buffer containing Na₂HPO₄ 20 mM pH 7.4, EDTA 1 mM, NaCl 50 mM, pluronic acid F-68 0.05%. The fluorescence polarisation is then measured by the En Vision apparatus (Packard Perkin-Elmer).
# [2] = molecular target: T2, fusion protein glutathione-S-transferase-Bcl-XL (UniProt P08515 1-218 = GST; Q07817 1-209); assay: fluorescence polarisation, 15 nM fluorescein-peptide, GST-Bcl-XL titrated 1 nM to 5 uM
# T2 construct: also called GST-Bcl-XL
# T2 sequence (P08515 1-218, tags or fused parts left off): as above
# Protocol: as §1
binder,measurement,setting,value
B1,Kd,[1],411 nM
same,Kd,[2],215 nM
